Test results published in PMC10663608.

Molecular target: human EGFR tagged with mTurquoise at the C-terminus (EGFR-mTurquoise) (human) (UniProt P00533)

EGF ligand from mouse labeled with rhodamine at its N-terminus (rho-mEGF)
K (resp) of the transducer function for Y1068 phosphorylation (phosphorylation against ligand-bound EGFR fraction in single vesicles) (fraction of ligand-bound receptors): 0.4 | K (resp) of the transducer function for Y1173 phosphorylation (phosphorylation against ligand-bound EGFR fraction in single vesicles) (fraction of ligand-bound receptors): 0.86
